# Measurements: the DeepSol protein solubility set
# Test: soluble on expression in E. coli; label from the status in PepcDB or PDB records
row,Sequence,soluble on expression in E. coli
1,MRDNPLVSILIPTFNRPMLLEKSLRSAVNQTYKNIEIVICDDSTNYDSKTVVESYMKRYKNIRYYFNNGPLGNFGLNNVKKCYELSKGEYINYLNDDDMFHKSKIMRMIRYFQNYKKITLVTSHRSVIDKNDNILPDINATKRIRYLNRPVSGRIIAKLMFNLGNFIGEPTTVLFKKSDVKNFGSLNGKQYYSLIDAATWFELLSKGYCVYIADTLSYFRIHEGQNTNRPEVSGRFLLEWKDLNDYGYRKKIIDSEFYKRFLLSFKKEYEKPKLEHHHHHH,not soluble
2,MAHHHHHHMNKEHILFDSFPLTFLSDEVDCSNFEDEQERTYRERIAQMTEELKSLRMEITEKHSIRSMLEEKVAMLQNEEQTKQNNLKYVLNFCDKQMYERELGNFHNHLEQLRKQIQNSNCKIKLLIEKEFKVRKQLQLRYMKLYDLLNERVRYILGDYVKHRKCACAIFAYRQEGQR,not soluble
3,MPVFHTRTIESILEPVAQQISHLVIMHEEGEVDGKAIPDLTAPVAAVQAAVSNLVRVGKETVQTTEDQILKRDMPPAFIKVENACTKLVQAAQMLQSDPYSVPARDYLIDGSRGILSGTSDLLLTFDEAEVRKIIRVCKGILEYLTVAEVVETMEDLVTYTKNLGPGMTKMAKMIDERQQELTHQEHRVMLVNSMNTVKELLPVLISAMKIFVTTKNSKNQGIEEALKNRNFTVEKMSAEINEIIRVLQLTSWDEDAWASKDTEAMKRALASIDSKLNQAKGWLRDPSASPGDAGEQAIRQILDEAGKVGELCAGKERREILGTCKMLGQMTDQVADLRARGQGSSPVAMQKAQQVSQGLDVLTAKVENAARKLEAMTNSKQSIAKKIDAAQNWLADPNGGPEGEEQIRGALAEARKIAELCDDPKERDDILRSLGEISALTSKLADLRRQGKGDSPEARALAKQVATALQNLQTKTNRAVANSRPAKAAVHLEGKIEQAQRWIDNPTVDDRGVGQAAIRGLVAEGHRLANVMMGPYRQDLLAKCDRVDQLTAQLADLAARGEGESPQARALASQLQDSLKDLKARMQEAMTQEVSDVFSDTTTPIKLLAVAATAPPDAPNREEVFDERAANFENHSGKLGATAEKAAAVGTANKSTVEGIQASVKTARELTPQVVSAARILLRNPGNQAAYEHFETMKNQWIDNVEKMTGLVDEAIDTKSLLDASEEAIKKDLDKCKVAMANIQPQMLVAGATSIARRANRILLVAKREVENSEDPKFREAVKAASDELSKTISPMVMDAKAVAGNISDPGLQKSFLDSGYRILGAVAKVREAFQPQEPDFPPPPPDLEQLRLTDELAPPKPPLPEGEVPPPRPPPPEEKDEEFPEQKAGEVINQPMMMAARQLHDEARKWSSKGNDIIAAAKRMALLMAEMSRLVRGGSGTKRALIQCAKDIAKASDEVTRLAKEVAKQCTDKRIRTNLLQVCERIPTISTQLKILSTVKATMLGRTNISDEESEQATEMLVHNAQNLMQSVKETVREAEAASIKIRTDAGFTLRWVRKTPWYQ,soluble
4,MGSDKIHHHHHHMSIQSLLDYISVTPDIRQQGKVKHKLSAILFLTVCAVIAGADEWQEIEDFGHERLEWLKKYGDFDNGIPVDDTIARVVSNIDSLAFEKMFIEWMQECHEITDGEIIAIDGKTIRGSFDKGKRKGAIHMVSAFSNENGVVLGQVKTEAKSNEITAIPELLNLLYLKKNLITIDAMGCQKDIASKIKDKKADYLLAVKGNQGKLHHAFEEKFPVNVFSNYKGDSFSTQEISHGRKETRLHIVSNVTPELL,not soluble
5,MSLKIVVTKFGGSSLADSNQFKKVKGIIDSDANRKYIIPSAPGKRTNKDYKITDLLYLCNAHVKNGIPFDDVFKLISQRYTEIVSELNIDMDIAYYLEKVKKNIENGASSDYAASRGEYLNGVILAKYLNAEFIDAAEVIFFDKSGCFDEKKSYEKIKEKVLSCNKAVIPGFYGSSFNGDVKTFSRGGSDVTGSIISAGVNADLYENWTDVSGFLMADPRIVENPKTISKISYKELRELSYMGATVLHEEAIFPVKDSGIPINIKNTNKPSDPGTLILSDTHKEINLGTITGIAGKKNFTVIAIEKALLNSEVGFCRKILSILEMYGVSFEHMPSGVDSVSLVIEDCKLDGKCDKIIEEIKKQCNPDSIEIHPNMALVATVGTGMAKTKGIANKIFTALSKENVNIRMIDQGSSEINVIVGVETVDFEKAVKSIYNAFNEGHHHHHH,soluble
6,MGSDKIHHHHHHMPRPRRSQVSVEDTPMYHCCSRVVRRAYLCGDDKFSGKNYDHRRGWVEAQLLKLAEVFAIDVAAYAVMSNHLHVVLSIDIYQANRWTGIEVINQWHLLFKGTDITQKFAKGETLEDYEALELTYTIALYRSRLSDISWFMRALNEPIARRANEEDECTGRFWEGRFKSQALLDEAAVLACMVYVDLNPIRSTIAKTPETSDFTSIKRRITAALNGTQPKALLPFVGNERKDMPKGLTFHLKDYLQLVEDTGKAVRNDKRGCISPNSHSILNRLNIPADNWLKIINEFGKLFKGPVGTLQELTAYCEHLEKQRRHYCHACQHLAAS,not soluble
7,MLIFRTSPMSRREKSLPIEPKYTKPQANGSSFPPIFTLEGSTPCKKTARKLIDPVVNSVDSLCYLARKIVKMQEEKKRQKSNSFLIDYLVGDNFITEFREQPAQASPAVDVEDPMVSLVLGCPFGAIGQERRMSQDFPFQRRSFDMVSNRTSTSESSSCSSTDNTYKNAGKFLSLQEYLEQNNLLPPSTMPFGENSGFHGYNPQMNVHNNSTRNGNVENREQRNNSTSPPRGNPPHPLCCCFCFGTASEFARLHTLPAPRKDDRGPWSDHCSKKRGRVVCPKLRSMVCGICGATGDNAHTTKHHLEAFGDD,not soluble
8,MGSDKIHHHHHHMINTALRLAAPEIEAFLQGRIIAAMPNKFITPGREFALCPSDASINLLPVEQYYRSSFLPIAQSAFAQLNIQGVLIQPQQMNLLIDEEQLKLPILAYETVLIKTWAKCELCQIINNTESFAALSQLTIWTTEALKEILRQKQNIFLAYLRVYELPKSIEVPIKSNSQFVALSQPLNVSEDKPVLKDRTFAQRKHQLEKLQPPLHPELEELQSAIASLSISQPAAKQLDDDIKVFLGWSSDKLTNPLDSDLPWIQNIAKVGNSSDGHTFEKLVRRGLLKLGFTGSGLNPDATGGAGGMDFYAEQPYPIVGECKATKTEKVTDGTPAQLLKIGMNHLGKFQYDNSIKLIVAAGELNFYALRTATENQMNIVSPETLQKLVELQAHYKNSINLLDLSGNKRE,not soluble
9,MKSYMTQRLDEYRDGNEDKGRLLVSCPDQPGIVSAVSAFLFEHGANIIESNQYTTDPEGGRFFLRIEFDCAGIREKKSSLQAAFASVAEKFDMTWSLTLASELKRVAIFVSKNLHCLHELIWEWQTGNLMAEIAVVISNHEEARELVERLNIPFHYMKANKDIRAEVEKKQLELLEQYDVDVIVLARYMQILTPDFVSAHPNRIINIHHSFLPAFIGANPYKRAYERGVKLIGATSHYVTNDLDEGPIIEQDIKRVDHRDNAETLKNIGRTIERSVLARAVKWHLEDRVIVHENK,not soluble
10,MGSDKIHHHHHHMKRPLKVLVVGAKFGELYLNSFLLEQPGLQLAGLLANGSPRARALANAFGIALYTDIEQLPDDLDIACVVVRSAVVGGAGGQLTESLLRRGLHVIQEHPVHPDELVRHQQLATRMGCQYIVNSFYPHTEAGRCWAGTAQRISRLLEGRKPNLAQLTTSRQLLYSGLDLLFQALGCDLARQVSVSLLDGDDDFHTLSLNLPDSRVLLRLQRWMAADDPDLHSLVMHQLNLAWPSGYLSLDATYGPVNWTPALHAEAHDDDRQTLYTSNADYLQHATAMPLHPAASHWRSAHEIEGPAGVGWLLQQLLAVLQGRPRADGLQADYQLAVARLWQDILRCAGPAEQRMASAPLFIDAAQLRAEG,not soluble
11,MDSENSSSHSISSPQMFQNTHNNSAMEDNLLSRPMNNESLQMIIGYLRRNGLTETEELLTREAGPVLRVEGSNGLPPEEAISVEFDTFVQHANDCTDVVQAEFSQLLFPIFAHSYIALIEKHAATARIFFNRFKIFIPECFSEFVYQLSLIEDAMTLRANEHVHILRENKFLVRLSRPTLKHLESIQTRVIGVKNIIAKHICIENADEVSTNRTTIETQMGGILGVTSKSDKRHKMMFSVLKDELMQNIEKRKTKGKDWKDMGKKMQTHCPQADRIPLPPISEHLREERRNWLRDVGKMAIISAESPVSICMYTTVNAPIGVASCDFTDDSSLIAMGLSDSSIVMNAMDPMNKMKKLRDMEFLDKIDIETADNVQSQMFDLQGSTTSVRYTGHGGPVFSVNFSPDRRLLISSAGDRTVRLWSMETQRNAVIYRTPAVAQFCSRGYYFATASADKTAAMWSTDRMHPLRIFADPYGDVGCIDYHPNCNYIAGGSDDRYVRVWDVCSGTRVRIFSGHKASIIAVKFSPCGRYIVSLDAIGNLMIWDLAYQRLVAAEITEQAGTKGSITFSRDGGVFAVSHGNSSIQLYSLDTLIGTVLAAGQNDSYIEPKVNLDGFNIGSYATKETAVIGLHFTRRNLLLGFGCFGQ,soluble
12,MERVRRASHAGSWYTNNARKLDEELDGWLRAAGLTKSPDVRAVIAPHAGYSYSGRCAAYAFGNIDPTNISRVFLLGPSHHYYTPKCALTRATIYSTPIGDLPVDHEVIEELNATGKFDFMDLSVDEAEHSMEMHLPYLSKVFQGHNVKVVPILVGALNSQNEAMYGQLLSKYLDDPKNFFSISSDFCHWGTRFSYTYYDKSHGAIHKSIEALDRMGMEIIETGNPDAFKQYLQEYENTICGRHPISVFLSMLKHCLTKIKIGFVRYEQSSQCKSMRDSSVSYASAAAKVDTPAEEEKD,soluble
13,MGSDKIHHHHHHMLPRQPRSRTSADCSGFPARYGGWLALLLSRLSRSAGKEPGCERGARPRTAMRGSHGSISCIATGCLLSSSAMIWTISDLHLSFARPKPMDIFGPGWKDHPERIAQAWRERVAATDWVLIAGDISWAMKLPDALLDLQWIDALPGTKVLIRGNHDYWCPRRVNSIRRHLPPSLRLIGADALDIGEAVVCGTRGWITPETPGFTETDLPIYQRELGLLERALAAGQALAVNKPLIVMIHFPPFVNRQPTEFSRRIAASGAAACIYGHLHRRYDWDNAVQGRVDGVYYQLTACDYLGFGPVAVRGLNGWSGG,not soluble
14,MGSDKIHHHHHHMTINFNRIYVIQSLSKANGDELTGQQLFDDVLQYFNTKYGDKDARIFNVDNKKELLHALENIKSHCETDGIKPIIHFEIHGLEDKTGLSLNQEDVNWGDIYVKFIEINAASKWNLFITMGVCFGNYSMLLIRPSLPAPFTGILGSFEELFEWDLYIRYNAFYQELLNSLDFEKALEALHDSNPALPDDYRYINSEQTFKNVYQKYFDTQFSDVKIKERFNLTIAEEKISFTNRNIKRQFYSKFRTNLLNTKKEFFIKDKRKFFMFDVFPGHQYIYCVNWEPNYH,not soluble
15,MEINSREVYVFTPKGDVMSLPQGATPVDFAYAVHTEVGHRCIGARVNGKLVTLDTKLNNGDVIDILTSNAPDAGPSRLEHHHHHH,not soluble
16,MMKEVLDAFRKSGEAEGFGHNKMSSSEVASHYNKVLQVGIEGRKESRIFFMRNMNNWVKSQLINDAKQRVNDNGVNNPRVLDLACGKGGDLKKWDIAGAKDVVMADVADVSIQQAEERYKQMFGYKKNNIFTVQFIVADCTKENLEDRIENKDPFDLVSCQFALHYSFVDEASARIFLKNAVGMLKPGGVFIGTLPDADRIVWSMRNGENGQFANEVCKITYENVEELAEGKVPLFGAKFHFSLDEQVNCPEFLAYFPLVKHLLEELDMELLFVHNFAEAINKWLEPGRRLLESMTGLETYPNEKLSGKSDDEYLEAKAKLDAFPEDERIKTMGTLSKSEWEAICMYLVFGFRKKKSEAEKTEEEPATTKPVAESESEQKEVTESEEKEDQEDCEHQEAQTN,soluble
17,MAGSDPAAPAAPAAAAPDTVKILIAGGFGVGKTTMVGSVSEIAPLRTEEPLTAAGLDVDDLDGIAEKDATTVALDFGRITIGSELVLYLFGTPGQQRFWFMWNDLAIGALGAVVLIDVRRPESSFAAVDFFERRGIPFVIGVNGFHGLHPYTPEEIREALALPERAQVLLCDARERESCRDVLIALIDQLIAARLEHHHHHH,not soluble
